Measured values taken from FireProtDB (doi:10.1111/j.1432-1033.1993.tb17904.x).
Where “and” joins values, the source holds several entries; their conditions need not be identical. Identical values can stand only once.

Conditions: Carica papaya, Thermal, DSC, glycine-HCl 5 mM, reversible: yes, whole UniProt chain shown

B1: Papain wild type, P00784 (protein)
chain: MAMIPSISKLLFVAICLFVYMGLSFGDFSIVGYSQNDLTSTERLIQLFESWMLKHNKIYKNIDEKIYRFEIFKDNLKYIDETNKKNNSYWLGLNVFADMSNDEFKEKYTGSIAGNYTTTELSYEEVLNDGDVNIPEYVDWRQKGAVTPVKNQGSCGSCWAFSAVVTIEGIIKIRTGNLNEYSEQELLDCDRRSYGCNGGYPWSALQLVAQYGIHYRNTYPYEGVQRYCRSREKGPYAAKTDGVRQVQPYNEGALLYSIANQPVSVVLEAAGKDFQLYRGGIFVGPCGNKVDHAVAAVGYGPNYILIKNSWGTGWGENGYIRIKRGTGNSYGVCGLYTSSFYPVKN
unfolding enthalpy (calorimetric) (pH 1.9): 119 kcal/mol and 98.7 kcal/mol
unfolding enthalpy (van 't Hoff) (pH 1.9): 65.2 kcal/mol and 50.6 kcal/mol
unfolding enthalpy (calorimetric) (pH 2.4): 133 kcal/mol and 143 kcal/mol and 111 kcal/mol
unfolding enthalpy (van 't Hoff) (pH 2.4): 72.6 kcal/mol and 82.3 kcal/mol and 62.9 kcal/mol
Tm (pH 2.9): 69.5 °C and 70.4 °C
unfolding enthalpy (calorimetric) (pH 2.9): 154 kcal/mol and 162 kcal/mol
unfolding enthalpy (van 't Hoff) (pH 2.9): 79.6 kcal/mol and 89.2 kcal/mol
unfolding enthalpy (calorimetric) (pH 3.5): 206 kcal/mol and 226 kcal/mol and 189 kcal/mol
unfolding enthalpy (van 't Hoff) (pH 3.5): 113 kcal/mol and 118 kcal/mol and 98.9 kcal/mol
unfolding enthalpy (calorimetric) (pH 3.9): 229 kcal/mol and 232 kcal/mol and 198 kcal/mol
unfolding enthalpy (van 't Hoff) (pH 3.9): 132 kcal/mol and 130 kcal/mol and 114 kcal/mol
